Where two headings read alike, the source gives them in different places.
How the values were obtained:
[1] = biological target: human leptin receptor (short form), membrane-bound, from stably transfected CHO cells (human) (UniProt P48357); test: 125I-Leptin competition on membranes of CHO cells expressing human leptin receptor; IC50 vs WT
[2] = biological target: chimeric leptin receptor-EPO receptor (OBR-EPOR) on 32D-OBECA cells (human; murine) (UniProt P48357); test: cell-based or functional assay
[3] = biological target: human leptin receptor (short form), membrane-bound, from stably transfected CHO cells (human) (UniProt P48357); test: 125I-Leptin competition on membranes of CHO cells expressing human leptin receptor; IC50 vs WT; remark: listed apart in the source

rHu-Leptin 1-146, site 72 (NVI > NVT) (ligand)
Receptor binding Rel. to WT. [1]: 1.7 rel. to WT | Bioactivity Rel. to WT. [2]: 0.26 rel. to WT

rHu-Leptin 1-146, site 38 (GLD > NLT) (ligand)
Receptor binding Rel. to WT. [1]: 0.2 rel. to WT | Bioactivity Rel. to WT. [2]: 0.036 rel. to WT

rHu-Leptin 1-146, site 35 (KVT > NVT) (ligand)
Receptor binding Rel. to WT. [1]: 0.5 rel. to WT | Bioactivity Rel. to WT. [2]: 0.13 rel. to WT

rHu-Leptin 1-146, site 71 (RNV > NNT) (ligand)
Receptor binding Rel. to WT. [1]: 1.9 rel. to WT | Bioactivity Rel. to WT. [2]: 0.3 rel. to WT

rHu-Leptin 1-146, site 102 (SGL > NGT) (ligand)
Receptor binding Rel. to WT. [1]: 0.6 rel. to WT | Receptor binding Rel. to WT. [3]: 0.5 rel. to WT | Bio-activity Rel. to WT. [2]: 0.66 rel. to WT | Bioactivity Rel. to WT. [2]: 0.85 rel. to WT

rHu-Leptin 1-146, site 100e (WAS > TAS) (ligand)
Receptor binding Rel. to WT. [1]: > 1.9 rel. to WT | Bioactivity Rel. to WT. [2]: 0.83 rel. to WT

rHu-Leptin 1-146, site 67 (SMP > NMT) (ligand)
Receptor binding Rel. to WT. [1]: 0.8 rel. to WT | Bioactivity Rel. to WT. [2]: 0.52 rel. to WT

rHu-Leptin 1-146, site 25 (SHT > NHT) (ligand)
Receptor binding Rel. to WT. [1]: 0.4 rel. to WT | Bioactivity Rel. to WT. [2]: 0.02 rel. to WT

rHu-Leptin 1-146, site 23a (DIS > NIT) (ligand)
Bio-activity Rel. to WT. [2]: 0.53 rel. to WT | Bioactivity Rel. to WT. [2]: 0.53 rel. to WT

rHu-Leptin 1-146, site 7 (QDD > NDT) (ligand)
Receptor binding Rel. to WT. [1]: 1.25 rel. to WT | Bioactivity Rel. to WT. [2]: 0.04 rel. to WT

rHu-Leptin 1-146, site 101 (ASG > NST) (ligand)
Receptor binding Rel. to WT. [1]: 0.7 rel. to WT | Bioactivity Rel. to WT. [2]: 0.33 rel. to WT

rHu-Leptin 1-146, site 43 (PGL > NGT) (ligand)
Receptor binding Rel. to WT. [1]: 1.5 rel. to WT | Bioactivity Rel. to WT. [2]: 0.014 rel. to WT

rHu-Leptin 1-146, site 45 (CHP > NHT) (ligand)
Receptor binding Rel. to WT. [1]: 0.5 rel. to WT | Bioactivity Rel. to WT. [2]: 0.08 rel. to WT

rHu-Leptin 1-146, site 100b (WAS > NAS) (ligand)
Receptor binding Rel. to WT. [1]: 0.7 rel. to WT | Bioactivity Rel. to WT. [2]: 1.46 rel. to WT

rHu-Leptin 1-146, site 116 (ASG > NST) (ligand)
Receptor binding Rel. to WT. [1]: 0.9 rel. to WT | Bioactivity Rel. to WT. [2]: 0.56 rel. to WT

rHu-Leptin 1-146, site 119 (YST > NST) (ligand)
Receptor binding Rel. to WT. [1]: 0.8 rel. to WT | Bioactivity Rel. to WT. [2]: 0.02 rel. to WT

rHu-Leptin 1-146, site 37 (TGL > NGT) (ligand)
Receptor binding Rel. to WT. [1]: 0.4 rel. to WT | Bioactivity Rel. to WT. [2]: 0.043 rel. to WT

rHu-Leptin 1-146, site 93 (SKS > NKT) (ligand)
Bioactivity Rel. to WT. [2]: 1.1 rel. to WT

rHu-Leptin 1-146, site 29 (SVS > NVT) (ligand)
Receptor binding Rel. to WT. [1]: 0.6 rel. to WT | Bioactivity Rel. to WT. [2]: 0.5 rel. to WT

rHu-Leptin 1-146, site 103 (GLE > NLT) (ligand)
Receptor binding Rel. to WT. [1]: 1 rel. to WT | Bioactivity Rel. to WT. [2]: 0.73 rel. to WT

rHu-Leptin 1-146, site 118 (GYS > NYT) (ligand)
Receptor binding Rel. to WT. [1]: 0.8 rel. to WT | Bioactivity Rel. to WT. [2]: 3.8 rel. to WT

rHu-Leptin 1-146, site 120 (STE > NTT) (ligand)
Receptor binding Rel. to WT. [1]: 0.7 rel. to WT | Bioactivity Rel. to WT. [2]: 0.01 rel. to WT

rHu-Leptin 1-146, site 26 (HTQ > NTT) (ligand)
Receptor binding Rel. to WT. [1]: 1.5 rel. to WT | Bioactivity Rel. to WT. [2]: 0.01 rel. to WT

rHu-Leptin 1-146, site 73 (VIQ > NIT) (ligand)
Receptor binding Rel. to WT. [1]: 8 rel. to WT | Bioactivity Rel. to WT. [2]: 0.01 rel. to WT

rHu-Leptin 1-146, site 69 (PSR > NST) (ligand)
Receptor binding Rel. to WT. [1]: 0.6 rel. to WT | Bio-activity Rel. to WT. [2]: 1.1 rel. to WT | Bioactivity Rel. to WT. [2]: 1.1 rel. to WT

rHu-Leptin 1-146 (wild type) (ligand)
Receptor binding Rel. to WT. [1]: 1 rel. to WT | Bio activity Rel. to WT. [2]: 1 rel. to WT | Bioactivity Rel. to WT. [2]: 1 rel. to WT

rHu-Leptin 1-146, site 100d (PWAS > ANAT) (ligand)
Receptor binding Rel. to WT. [1]: 1.45 rel. to WT | Bioactivity Rel. to WT. [2]: 0.26 rel. to WT

rHu-Leptin 1-146, site 27 (TQS > NQT) (ligand)
Receptor binding Rel. to WT. [1]: 0.7 rel. to WT | Bioactivity Rel. to WT. [2]: 0.13 rel. to WT

rHu-Leptin 1-146, site 77 (SND > NNT), expressed with the erythropoietin signal peptide (ligand)
Receptor binding Rel. to WT. [1]: 2.2 rel. to WT | Bioactivity Rel. to WT. [2]: < 0.02 rel. to WT

rHu-Leptin 1-145 expressed with the erythropoietin signal peptide (ligand)
Receptor binding Rel. to WT. [1]: 0.6 rel. to WT | Bio activity Rel. to WT. [2]: 0.36 rel. to WT

rHu-Leptin 1-146, site 8 (DDT > NDT) (ligand)
Receptor binding Rel. to WT. [1]: 1.2 rel. to WT | Bioactivity Rel. to WT. [2]: 1.2 rel. to WT

rHu-Leptin 1-146, site 48 (ILT > NLT) (ligand)
Receptor binding Rel. to WT. [1]: 0.8 rel. to WT | Bio-activity Rel. to WT. [2]: 0.53 rel. to WT | Bioactivity Rel. to WT. [2]: 0.53 rel. to WT

rHu-Leptin 1-146, site 115 (EAS > NAT) (ligand)
Receptor binding Rel. to WT. [1]: 0.9 rel. to WT | Bioactivity Rel. to WT. [2]: 0.006 rel. to WT

rHu-Leptin 1-146, site 70 (SRN > NRT) (ligand)
Receptor binding Rel. to WT. [1]: 1 rel. to WT | Bioactivity Rel. to WT. [2]: 1 rel. to WT

rHu-Leptin 1-146, site 97 (HLP > NLT) (ligand)
Bioactivity Rel. to WT. [2]: 1.1 rel. to WT

rHu-Leptin 1-146, site 44 (GLH > NLT) (ligand)
Receptor binding Rel. to WT. [1]: 2 rel. to WT | Bioactivity Rel. to WT. [2]: 0.78 rel. to WT

rHu-Leptin 1-146, site 47 (PIL > NIT) (ligand)
Receptor binding Rel. to WT. [1]: 0.66 rel. to WT | Bio-activity Rel. to WT. [2]: 0.84 rel. to WT | Bioactivity Rel. to WT. [2]: 0.84 rel. to WT

rHu-Leptin 1-146, site 100a (PWAS > SNAT) (ligand)
Receptor binding Rel. to WT. [1]: 0.6 rel. to WT | Bioactivity Rel. to WT. [2]: 0.9 rel. to WT

rHu-Leptin 1-146, site 5 (KVQ > NVT) (ligand)
Receptor binding Rel. to WT. [1]: 1.7 rel. to WT | Bioactivity Rel. to WT. [2]: 0.05 rel. to WT

rHu-Leptin 1-145 (ligand)
Receptor binding Rel. to WT. [1]: 1.3 rel. to WT | Bio activity Rel. to WT. [2]: 0.14 rel. to WT

rHu-Leptin 1-146 expressed with the erythropoietin signal peptide and human albumin prosequence (ligand)
Receptor binding Rel. to WT. [1]: 3.5 rel. to WT | Bio activity Rel. to WT. [2]: 1.8 rel. to WT

rHu-Leptin 1-146, site 100c (WAS > NAT) (ligand)
Receptor binding Rel. to WT. [1]: 0.45 rel. to WT | Bioactivity Rel. to WT. [2]: 0.81 rel. to WT

rHu-Leptin 1-146, site 4 (QKV > NKV) (ligand)
Receptor binding Rel. to WT. [1]: 1.7 rel. to WT | Bioactivity Rel. to WT. [2]: 0.73 rel. to WT

rHu-Leptin 1-146, site 23a (DIS > NIT), erythropoietin signal peptide (ligand)
Receptor binding Rel. to WT. [1]: 0.5 rel. to WT | Bio-activity Rel. to WT. [2]: 0.79 rel. to WT

rHu-Leptin 1-146, site 141 (DLS > NLT) (ligand)
Receptor binding Rel. to WT. [1]: 0.3 rel. to WT | Bioactivity Rel. to WT. [2]: 1 rel. to WT

rHu-Leptin 1-146, site 99 (PWA > NWT) (ligand)
Receptor binding Rel. to WT. [1]: 0.9 rel. to WT | Bioactivity Rel. to WT. [2]: 0.5 rel. to WT

rHu-Leptin 1-146, site 68 (MPS > NAT) (ligand)
Receptor binding Rel. to WT. [1]: 0.8 rel. to WT | Bioactivity Rel. to WT. [2]: 0.036 rel. to WT

rHu-Leptin 1-146, site 92 (FSK > NST) (ligand)
Receptor binding Rel. to WT. [1]: 1.6 rel. to WT | Bio-activity Rel. to WT. [2]: 0.8 rel. to WT | Bioactivity Rel. to WT. [2]: 0.67 rel. to WT

rHu-Leptin 1-146, site 33 (KQK > NQT) (ligand)
Receptor binding Rel. to WT. [1]: 0.9 rel. to WT | Bioactivity Rel. to WT. [2]: 0.04 rel. to WT

rHu-Leptin 1-146, site 117 (SGY > NGT) (ligand)
Receptor binding Rel. to WT. [1]: 1.9 rel. to WT | Bioactivity Rel. to WT. [2]: 0.01 rel. to WT

rHu-Leptin 1-146, site 46 (HPI > NPT) (ligand)
Receptor binding Rel. to WT. [1]: 0.11 rel. to WT | Bioactivity Rel. to WT. [2]: 0.27 rel. to WT

rHu-Leptin 1-146 expressed with the native human erythropoietin signal peptide (ligand)
Receptor binding Rel. to WT. [1]: 1 rel. to WT | Bio activity Rel. to WT. [2]: 0.95 rel. to WT
